# Measurements reported in publication PMC3161508 (Advances in experimental medicine and biology, 2010).
# Target: the molecule itself
# Test: non-reducing SDS-PAGE and Western blotting
protein,measurement,value
"cone CNG channel β subunit CNGB3 (natural protein, mouse (endogenous in retina), UniProt Q9JJZ9 1-694, looked up) MLKSLTVKFNKVNPMEGRMEKKLCPNLSSLSQPTIAQGDNQSEKEPLRSRTPITFEKSHSKEDNSTGENSLRDFTPNPDPECRAELTRTMAEMEKTRTGKERPVSFKTKVLETSIINEYTDAHLHNLVERMRERTALYKKTLTEEENFPEVEASSQTAMSTNISPKQENNSKLKEHQDTFSFKPQRVPVKEHLRRMILPRSIDSYTDRVYLLWLLLVTIAYNWNCWLLPVRLVFPCQTPDNKNYWIITDIVCDIIYLCDILLIQPRLQFVRGGEIIVDSNELKRNYRSSTKFRMDVASLLPFEVLYIFFGVNPIFRANRILKYTSFFEFNHHLESIMDKAYVYRVIRTTGYLLFLLHINACVYYWASDYEGIGSTKWVYNGEGNKYLRCFYWAVRTLITIGGLPEPQTSFEIVFQFLNFFSGVFVFSSLIGQMRDVIGAATANQNYFQACMDHIIAYMNKYSIPQSVQYRVRTWLEYTWNSQRILDESNLLENLPTAMQLSIALDINFSIIDKVELFKGCDTQMIYDLLLRLKSTIYLPGDFVCKKGEIGKEMYIIKHGEVQVLGGPDGAQVLVTLKAGSVFGEISLLAKGGGNRRTADVVAHGFANLLTLDKKTLQEILLHYPTSKKLLMKKAKILLSQKGKTTQAIPARPGPAFLFPPKEETPRMLKVLLGNTGKVDLGRLLKGKRKTTTQK",stoichiometry N,2
